We go through twelve molecules from US20230235004A1 (published 2023).

One assay deals with T1, human MAdCAM protein (human, UniProt Q13477 19-317, limits assumed).
T1 construct: also called soluble monomeric human MAdCAM; recombinant human MAdCAM
T1 sequence (looked up): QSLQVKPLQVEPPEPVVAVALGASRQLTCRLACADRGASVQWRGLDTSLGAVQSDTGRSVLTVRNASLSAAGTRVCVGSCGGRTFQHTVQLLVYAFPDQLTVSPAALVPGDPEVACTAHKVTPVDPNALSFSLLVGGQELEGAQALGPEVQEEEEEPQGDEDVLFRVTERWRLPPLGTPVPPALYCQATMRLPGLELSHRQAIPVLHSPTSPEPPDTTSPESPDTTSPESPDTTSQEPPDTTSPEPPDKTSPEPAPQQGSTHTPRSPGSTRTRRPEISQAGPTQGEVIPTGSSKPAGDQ
Description: Octet. A general note: In BLI a coated tip is dipped into the sample, and binding shifts an interference pattern.

In assay [1] the target is T2, recombinant mouse MAdCAM-1 (mouse, UniProt Q61826 22-364, limits assumed).
T2 construct: also called mMAdCAM-1
T2 sequence (looked up): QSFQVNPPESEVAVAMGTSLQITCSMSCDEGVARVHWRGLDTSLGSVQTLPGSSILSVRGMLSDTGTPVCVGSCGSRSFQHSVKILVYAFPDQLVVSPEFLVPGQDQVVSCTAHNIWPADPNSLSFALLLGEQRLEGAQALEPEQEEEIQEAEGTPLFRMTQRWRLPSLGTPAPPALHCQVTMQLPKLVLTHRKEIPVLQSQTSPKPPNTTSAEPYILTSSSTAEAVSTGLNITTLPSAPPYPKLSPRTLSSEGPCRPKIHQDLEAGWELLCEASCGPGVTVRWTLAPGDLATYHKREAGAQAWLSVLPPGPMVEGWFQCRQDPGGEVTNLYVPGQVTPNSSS
Description: Octet.

Assay [2] has as its target T3, human MAdCAM expressed on cells (human, UniProt Q13477 19-382).
T3 construct: whole, on cells
T3 sequence (looked up): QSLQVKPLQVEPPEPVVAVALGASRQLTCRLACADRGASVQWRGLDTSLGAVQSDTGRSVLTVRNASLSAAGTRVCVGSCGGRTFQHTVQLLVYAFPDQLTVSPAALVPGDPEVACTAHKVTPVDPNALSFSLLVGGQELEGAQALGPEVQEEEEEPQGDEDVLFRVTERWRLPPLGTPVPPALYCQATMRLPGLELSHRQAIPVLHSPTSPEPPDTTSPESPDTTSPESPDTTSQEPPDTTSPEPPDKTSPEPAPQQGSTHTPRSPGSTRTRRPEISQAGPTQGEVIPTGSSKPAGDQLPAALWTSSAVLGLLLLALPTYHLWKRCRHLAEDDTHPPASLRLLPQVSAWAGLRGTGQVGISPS
Briefly: cell binding.

The target in assay [3] is T4, mouse MAdCAM expressed on cells (mouse, UniProt Q61826 22-405).
T4 construct: whole, on cells
T4 sequence (looked up): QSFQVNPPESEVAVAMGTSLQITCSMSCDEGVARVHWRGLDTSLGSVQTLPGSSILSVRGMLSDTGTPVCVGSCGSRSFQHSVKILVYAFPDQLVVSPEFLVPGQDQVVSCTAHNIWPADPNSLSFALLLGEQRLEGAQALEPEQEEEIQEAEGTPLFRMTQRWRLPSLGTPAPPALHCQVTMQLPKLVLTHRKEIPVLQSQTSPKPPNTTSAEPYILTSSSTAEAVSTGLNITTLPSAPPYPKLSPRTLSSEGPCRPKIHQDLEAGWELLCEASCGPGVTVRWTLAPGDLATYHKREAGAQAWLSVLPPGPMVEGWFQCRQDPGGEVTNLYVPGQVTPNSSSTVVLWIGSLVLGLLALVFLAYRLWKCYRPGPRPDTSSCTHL
Briefly: cell binding.

B1: MAdCAM Antibody Table 2 clone 46 (antibody, V domains shown)
VH: EVQLLESGGGLVQPGGSLRLSCAASGFSFSSYTMNWVRQAPGKGLEWVSFITSSSRTIYYADSVKGRFTISRDNSKNTLYLQMNSLRAEDTAVYYCARDRRGDYGDSWYFDLWGRGTLVTVSS
VL: EIVMTQSPATLSVSPGERATLSCRASQSVRNYLAWYQQKPGQAPRLLIYGASTRATGIPARFSGSGSGTEFTLTISSLQSEDFAVYYCQQYGSSPLTFGGGTKVEIK
notes: IgG format
On to B1, for which the binding result was “binds” with human MAdCAM protein, “no binding” in assay [1], “binds” in assay [2] and “no binding” in assay [3].

B2: MAdCAM Antibody Table 2 clone 7 (antibody, V domains shown)
VH: EVQLLESGGGLVQPGGSLRLSCAASGFTFSDYQMSWVRQAPGKGLEWVAIISHADGGFKDYADSVKGRFTISRDNSKNTLYLQMNSLRAEDTAVYYCAKPYSSGWSAVYYFDYWGQGTLVTVSS
VL: DIQMTQSPSSLSASVGDRVTITCRASRGITNDLGWYQQKPGKAPKLLIYAASTLQSGVPSRFSGSGSGTDFTLTISSLQPEDFATYYCQQAYSFPWTFGQGTKVEIK
notes: IgG format
In the case of B2, the binding result in assay [1], in assay [2] and in assay [3] was “binds” in each case.

B3: MAdCAM Antibody Table 2 clone 11 (antibody, V domains shown)
VH: EVQLLESGGGLVQPGGSLRLSCAASGFTFSDYYMNWVRQAPGKGLEWVSVIGESGGSTYYADSVKGRFTISRDNSKNTLYLQMNSLRAEDTAVYYCAADPVSRWPKHGGGDYWGQGTLVTVSS
VL: DIQMTQSPSSLSASVGDRVTITCRASQGISSSLAWYQQKPGKAPKLLIYAASTLQSGVPSRFSGSGSGTDFTLTISSLQPEDFATYYCQQSYSTPWTFGQGTKVEIK
notes: IgG format
With B3, the binding result (in the assay with human MAdCAM protein; in assay [1]; in assay [2]; in assay [3]) was “binds” throughout.

B4: MAdCAM Antibody Table 2 clone 65 (antibody, V domains shown)
VH: QVQLVQSGAEVKKPGASVKVSCKASGYTFTSYDINWVRQAPGQGLEWMGWMNPNSGNTGYAQKFQGRVTMTRDTSTSTVYMELSSLRSEDTAVYYCAKDSDYSNLLWDYWGQGTLVTVSS
VL: DIQMTQSPSSLSASVGDRVTITCRASQDITNDLGWYQQKPGKAPKLLIYQASSLESGVPSRFSGSGSGTDFTLTISSLQPEDFATYYCQQSYTIPLTFGQGTKVEIK
notes: IgG format
In the case of B4, the binding result in the assay with human MAdCAM protein is given as “binds”; in assay [1], “no binding”; in assay [2] it was “binds”; in assay [3], “no binding”.

B5: MAdCAM Antibody Table 2 clone 17 (antibody, V domains shown)
VH: QVQLVQSGAEVKKPGSSVKVSCKASGYTFTDYHIHWVRQAPGQGLEWMGGIVPRSGSTTYAQKFQGRVTITADESTSTAYMELSSLRSEDTAVYYCAKDESSGWYYFDYWGQGTLVTVSS
VL: DIVMTQSPLSLPVTPGEPASISCRSSQSLLHSNGYNYLDWYLQKPGQSPQLLIYSAYNRASGVPDRFSGSGSGTDFTLKISRVEAEDVGVYYCMQALQTPLTFGQGTKVEIK
notes: IgG format
Consider B5, for which the binding result with human MAdCAM protein is listed as “binds”; in assay [1], “no binding”; in assay [2], “binds”; in assay [3] it was “no binding”.

B6: MAdCAM Antibody Table 2 clone 22 (antibody, V domains shown)
VH: EVQLLESGGGLVQPGGSLRLSCAASGFTFDDYAMHWVRQAPGKGLEWVSGISWNSGSIGYADSVKGRFTISRDNSKNTLYLQMNSLRAEDTAVYYCAKDIVAAGHYYYGMDVWGQGTTVTVSS
VL: DIQMTQSPSSLSASVGDRVTITCQASQDISNYLNWYQQKPGKAPKLLIYDASNLETGVPSRFSGSGSGTDFTLTISSLQPEDFATYYCQQSYSTPLTFGGGTKVEIK
notes: IgG format
B6: the binding result with human MAdCAM protein was “binds”; in assay [1], “no binding”; in assay [2], “binds”; in assay [3], “no binding”.

B7: MAdCAM Antibody Table 2 clone 23 (antibody, V domains shown)
VH: EVQLLESGGGLVQPGGSLRLSCAASGFTFDDYAMHWVRQAPGKGLEWVSYIDTSSSHLYYADSVKGRFTISRDNSKNTLYLQMNSLRAEDTAVYYCARDEAAAGYYGMDVWGQGTTVTVSS
VL: DIQMTQSPSSLSASVGDRVTITCQAGQDISNYLNWYQQKPGKAPKLLIYDASNLETGVPSRFSGSGSGTDFTLTISSLQPEDFATYYCQQTYSTPITFGQGTKLEIK
notes: IgG format
For the molecule B7, the binding result is “binds” in the assay with human MAdCAM protein, “no binding” in assay [1], “binds” in assay [2] and “no binding” in assay [3].

B8: MAdCAM Antibody Table 2 clone 8 (antibody, V domains shown)
VH: QVQLVQSGAEVKKPGASVKVSCKASGYTFTGYHIHWVRQAPGQGLEWMGIINPSGGSTIYAQKFQGRVTMTRDTSTSTVYMELSSLRSEDTAVYYCAKDWSSWYLGPFDYWGQGTLVTVSS
VL: DIQMTQSPSSLSASVGDRVTITCRASQNISSSLNWYQQKPGKAPKLLIYAASSLQSGVPSRFSGSGSGTDFTLTISSLQPEDFATYYCQQSYTTPYTFGQGTKVEIK
notes: IgG format
For the molecule B8, the binding result in assay [1], in assay [2] and in assay [3] was “binds” in each case.

B9: MAdCAM Antibody Table 2 clone 75 (antibody, V domains shown)
VH: EVQLLESGGGLVQPGGSLRLSCAASGFTFSDFWMHWVRQAPGKGLEWISYISGDSGYTNYADSVKGRFTISRDNSKNTLYLQMNSLRAEDTAVYYCARDRPYYYYMDVWGKGTTVTVSS
VL: DIQMTQSPSSLSASVGDRVTITCRASQSVSRSLAWYQQKPGKAPKLLIYAASSLQSGVPSRFSGSGSGTDFTLTISSLQPEDFATYYCQQYKSYPVTFGQGTKVEIK
notes: IgG format
On to B9, for which the binding result (with human MAdCAM protein; in assay [1]; in assay [2]; in assay [3]) was “binds” throughout.

B10: MAdCAM Antibody Table 2 clone 74 (antibody, V domains shown)
VH: QVQLVQSGAEVKKPGASVKVSCKASGYTFTGYYMHWVRQAPGQGLEWMGIINPSGGNTKYAQKFQGRVTMTRDTSTSTVYMELSSLRSEDTAVYYCTTADYYYYMDVWGKGTTVTVSS
VL: DIQMTQSPSSLSASVGDRVTITCRASQGISNYLAWYQQKPGKAPKLLIYAASSLQSGVPSRFSGSGSGTDFTLTISSLQPEDFATYYCQQYYSNADFGQGTKVEIK
notes: IgG format
Take B10: the binding result with human MAdCAM protein is on record as “binds”; in assay [1], “no binding”; in assay [2] it was “binds”; in assay [3] it was “no binding”.

B11: MAdCAM Antibody Table 2 clone 20 (antibody, V domains shown)
VH: EVQLLESGGGLVQPGGSLRLSCAASGFTFSDSAMHWVRQAPGKGLEWVSAISGSGSTIYYADSVKGRFTISRDNSKNTLYLQMNSLRAEDTAVYYCVSDIAVAGHWYFDLWGRGTLVTVSS
VL: DIQMTQSPSSLSASVGDRVTITCRASQSISTFLNWYQQKPGKAPKLLIYAASRLEGGVPSRFSGSGSGTDFTLTISSLQPEDFATYYCQQANSFPLTFGPGTKVDIK
notes: IgG format
In the case of B11, the binding result with human MAdCAM protein is given as “binds”; in assay [1] it was “no binding”; in assay [2] it was “binds”; in assay [3], “no binding”.

B12: MAdCAM Antibody Table 2 clone 24 (antibody, V domains shown)
VH: EVQLVESGGGLVKPGGSLRLSCAASGFTFSSYWMSWVRQAPGKGLEWVSRISSDGRITTYAAPVKGRFTISRDDSKNTLYLQMNSLKTEDTAVYYCARGTSYCTGGVCDIDYWGQGTLVTVSS
VL: DIQMTQSPSSLSASVGDRVTITCRASQSIGRNLNWYQQKPGKAPKLLIYSASNLQSGVPSRFSGSGSGTDFTLTISSLQPEDFATYYCQQSYSIPLTFGPGTKVDIK
notes: IgG format
Take B12: the binding result in assay [1] is listed as “no binding”; in assay [2], “binds”; in assay [3], “no binding”.
